This data set is described as follows: protein stability index of a GFP-peptide fusion (yeast GPS) (PSI 1-4); higher = more stable; sorted into four equal gates, so the index is relative within each strain. In short, it runs like this: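 Yeast carrying a pooled library were grown to mid-log phase in leucine-free medium. Each library plasmid expresses Cherry and has a tiled 17-residue yeast protein peptide fused downstream of GFP. Cells were sorted into four equal gates by GFP/Cherry ratio, and plasmids from each gate were PCR-amplified, Illumina-sequenced and assigned to strains by barcode. Summing, across gates, the read frequency times the gate number gave each peptide's protein stability index.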

This note sets out measurements from the supplement of paper PMC9732359.

± gives the uncertainty stated by the source.

On to SGQFYFRNPTPLLSNYA [RGR1], for which the protein stability index was 1.36 ± 0.059 (doa10∆), 1.54 ± 0.045 (pdr5∆), 1.8 ± 0.081 (san1∆) and 1.89 ± 0.044 (ubr1∆).
On the same counts, the results for KAPEAEQVLSAAATFPI [RPL13A] are 2.97 ± 0.071, 2.76 ± 0.075, 2.96 ± 0.078 and 2.81 ± 0.04.
On the same counts, the results for SKKNRPTLQVGDLVYAR [RRP40] are 2.36 ± 0.1, 2.48 ± 0.09, 1.87 ± 0.12 and 2.46 ± 0.043.
With PIPFEFQAVIQKSINHP [SNF2], the protein stability index is, setting by setting: (doa10∆) 2.67 ± 0.11; (pdr5∆) 2.61 ± 0.081; (san1∆) 2.37 ± 0.077; (ubr1∆) 2.86 ± 0.057.
For ASLTAARTAANSIYCPT [RPN6], the protein stability index worked out at 2.53 ± 0.19 (doa10∆), 2.66 ± 0.1 (pdr5∆), 2.84 ± 0.093 (san1∆) and 2.49 ± 0.045 (ubr1∆).
For the sequence MDRTSLRKQYSAIDEEI [SMC3], the protein stability index (doa10∆) was found to be 2.28 ± 0.21 and the protein stability index (ubr1∆) is 2.63 ± 0.25.
FDNFLTEEELQAAVPDN [BRN1]: the protein stability index (doa10∆) was 2.93 ± 0.071, the protein stability index (pdr5∆) was found to be 2.71 ± 0.071, the protein stability index (san1∆) worked out at 2.54 ± 0.068 and the protein stability index (ubr1∆) was found to be 2.65 ± 0.051.
For NINEVKKASDLVDTPSN [NUT1], in that order: 3.14 ± 0.083, 2.97 ± 0.085, 3.23 ± 0.065 and 3.27 ± 0.07.
On the same counts, the results for LQCPMLYVESTGKFVLQ [CSN12] are 2.34 ± 0.12, 2.98 ± 0.12, 2.43 ± 0.15 and 2.68 ± 0.1.
Regarding QLISAVLVSMGSSNKAV [YJL039C/NUP192], the protein stability index by setting is: (doa10∆) 1.47 ± 0.23; (pdr5∆) 1.69 ± 0.14; (ubr1∆) 1.23 ± 0.084.
Take GHIGAYLIVAGVDPTGS [PUP1]: the protein stability index by setting is: (doa10∆) 1.48 ± 0.1; (pdr5∆) 1.83 ± 0.093; (san1∆) 1.68 ± 0.16; (ubr1∆) 1.65 ± 0.11.
On to ATVVSTNHSAAASTPTT [PGD1], for which the protein stability index by setting is: (doa10∆) 2.91 ± 0.047; (pdr5∆) 3.12 ± 0.042; (san1∆) 2.98 ± 0.035; (ubr1∆) 3 ± 0.037.
Take RVAASFSQEALQYVVER [FAS1]: the protein stability index reads like this: (doa10∆) 1.06 ± 0.091; (pdr5∆) 1.19 ± 0.11; (ubr1∆) 1.14 ± 0.089.
For IIVENSGTSGDEDVDVL [RPN2], the protein stability index (doa10∆) was determined as 3.3 ± 0.12, the protein stability index (pdr5∆) stood at 3.61 ± 0.095, the protein stability index (san1∆) came to 3.5 ± 0.075 and the protein stability index (ubr1∆) worked out at 3.52 ± 0.095.
On the same counts, the results for LHYTPIEDLWQFLYEKH [RPC82] are 2.24 ± 0.13, 2.28 ± 0.13, 2.14 ± 0.12 and 2.4 ± 0.16.
On to FKAEKLQIVNQLPANMV [RPC17], for which the protein stability index was 3.36 ± 0.085 (doa10∆), 3.07 ± 0.068 (pdr5∆), 3.03 ± 0.071 (san1∆) and 3.13 ± 0.056 (ubr1∆).
On the same counts, the results for QRLIFAGKQLEDGRTLS [RPS31] are 2.8 ± 0.12, 2.97 ± 0.078, 3.38 ± 0.067 and 2.27 ± 0.12.
For SSKPAFNLISNAGTEKE [YLR335W/NUP2], in that order: 3.13 ± 0.094, 2.95 ± 0.098, 3.13 ± 0.065 and 3.07 ± 0.061.
For AAKIIYLAHEDNKEKDF [PRE10], in that order: 2.81 ± 0.19, 3.18 ± 0.098, 3.25 ± 0.11 and 3.01 ± 0.23.
For the sequence KDIAKRQFKEILTVKEE [RRP40], the protein stability index by setting is: (doa10∆) 2.2 ± 0.045; (pdr5∆) 2.4 ± 0.048; (san1∆) 2.46 ± 0.057; (ubr1∆) 2.52 ± 0.042.
For HEYIRHLALEIGEVYND [RPN1], in that order: 2.29 ± 0.065, 2.09 ± 0.067, 2.49 ± 0.11 and 1.54 ± 0.077.
On the same counts, the results for MPDEFNTLYTAIITDDL [SRP72] are 2.39 ± 0.047, 2.5 ± 0.043, 2.6 ± 0.035 and 2.64 ± 0.043.
For KVNPNIMNMIENVEKKE [SMC2], in that order: 2.46 ± 0.13, 2.71 ± 0.12, 2.36 ± 0.13 and 2.5 ± 0.064.
Sequence PSFTFGGSTTNNTTTTS [YOR098C/NUP1] showed a protein stability index (doa10∆) of 3.04 ± 0.099, a protein stability index (pdr5∆) of 3.19 ± 0.091, a protein stability index (san1∆) of 3.08 ± 0.056 and a protein stability index (ubr1∆) of 3.36 ± 0.073.
Consider PLNDGFVDLVEHFLKLN [YML103C/NUP188], for which the protein stability index by setting is: (doa10∆) 1.84 ± 0.28; (pdr5∆) 1.63 ± 0.12; (ubr1∆) 2.53 ± 0.13.
For the sequence INGEDPANNHQLGLQTV [SMX2], the protein stability index runs as follows: (doa10∆) 2.93 ± 0.11; (pdr5∆) 2.94 ± 0.1; (san1∆) 2.9 ± 0.073; (ubr1∆) 3.08 ± 0.06.
HIKKLLHQYYGDDESKI [FAS1] yielded a protein stability index (doa10∆) of 2.24 ± 0.084, a protein stability index (pdr5∆) of 2.9 ± 0.085, a protein stability index (san1∆) of 3.07 ± 0.074 and a protein stability index (ubr1∆) of 3 ± 0.12.
For the sequence DPLAKVNVLLQSYFSQL [BRR2], the protein stability index by setting is: (doa10∆) 1.28 ± 0.049; (pdr5∆) 1.78 ± 0.054; (san1∆) 1.58 ± 0.092; (ubr1∆) 1.54 ± 0.05.
For NYGIVELDPECQLQNSD [RRP43], in that order: 2.96 ± 0.075, 3.01 ± 0.062, 2.93 ± 0.054 and 3.02 ± 0.078.
On the same counts, the results for EYQSLMSLKDKLLIQID [SMC1] are 2.13 ± 0.077, 2.62 ± 0.082, 2.41 ± 0.2 and 2.38 ± 0.092.
On the same counts, the results for NVLKAPFIKSESKPFSS [SIR4] are 2.65 ± 0.068, 2.81 ± 0.088, 2.6 ± 0.064 and 3.03 ± 0.059.
For the sequence PSQSEEQKGQMAKKEGT [MED4], the protein stability index is, setting by setting: (doa10∆) 3.21 ± 0.2; (pdr5∆) 3 ± 0.22; (san1∆) 3.07 ± 0.19.
In the case of DTFVHVTDLSGKETIAR [RPS14B], the protein stability index (doa10∆) was determined as 2.88 ± 0.087, the protein stability index (pdr5∆) came to 2.98 ± 0.066, the protein stability index (san1∆) was found to be 2.83 ± 0.062 and the protein stability index (ubr1∆) worked out at 2.98 ± 0.058.
Turning to MQEKAAHIAKNLINLSI [YCS4], the protein stability index reads like this: (doa10∆) 2.15 ± 0.15; (pdr5∆) 1.55 ± 0.2; (ubr1∆) 1.46 ± 0.093.
On to EVRAISVAKIRFPETMD [RPO21], for which the protein stability index runs as follows: (doa10∆) 3.08 ± 0.1; (pdr5∆) 2.87 ± 0.087; (san1∆) 2.73 ± 0.079; (ubr1∆) 3.28 ± 0.044.
With YVTKPMVNESDGVTHAL [RPB2], the protein stability index stood at 3.2 ± 0.088 (doa10∆), 3.28 ± 0.087 (pdr5∆), 2.94 ± 0.081 (san1∆) and 3.36 ± 0.082 (ubr1∆).
